Assay [1] concerns the target T1, CSPG4 endogenous on HeLa cells (human, UniProt Q6UVK1 30-2322).
T1 construct: whole, on cells
In words: binding to HeLa cells; largely abolished in CSPG4^-/- cells.

Assay [2] concerns the target T2, FZD2-CRD-Fc, recombinant human protein (ACRO Biosystems) (human, UniProt Q14332 24-190).
T2 construct: domain: cysteine-rich domain (CRD); also called Fc-tagged FZD2-CRD; FZD2-Fc; not shown: Fc tag of the purchased protein
Kind of assay: GST pull-down, immunoblot. (In general: A western blot detects proteins with antibodies after separation by electrophoresis.)

T1 sequence (Q6UVK1 30-2322): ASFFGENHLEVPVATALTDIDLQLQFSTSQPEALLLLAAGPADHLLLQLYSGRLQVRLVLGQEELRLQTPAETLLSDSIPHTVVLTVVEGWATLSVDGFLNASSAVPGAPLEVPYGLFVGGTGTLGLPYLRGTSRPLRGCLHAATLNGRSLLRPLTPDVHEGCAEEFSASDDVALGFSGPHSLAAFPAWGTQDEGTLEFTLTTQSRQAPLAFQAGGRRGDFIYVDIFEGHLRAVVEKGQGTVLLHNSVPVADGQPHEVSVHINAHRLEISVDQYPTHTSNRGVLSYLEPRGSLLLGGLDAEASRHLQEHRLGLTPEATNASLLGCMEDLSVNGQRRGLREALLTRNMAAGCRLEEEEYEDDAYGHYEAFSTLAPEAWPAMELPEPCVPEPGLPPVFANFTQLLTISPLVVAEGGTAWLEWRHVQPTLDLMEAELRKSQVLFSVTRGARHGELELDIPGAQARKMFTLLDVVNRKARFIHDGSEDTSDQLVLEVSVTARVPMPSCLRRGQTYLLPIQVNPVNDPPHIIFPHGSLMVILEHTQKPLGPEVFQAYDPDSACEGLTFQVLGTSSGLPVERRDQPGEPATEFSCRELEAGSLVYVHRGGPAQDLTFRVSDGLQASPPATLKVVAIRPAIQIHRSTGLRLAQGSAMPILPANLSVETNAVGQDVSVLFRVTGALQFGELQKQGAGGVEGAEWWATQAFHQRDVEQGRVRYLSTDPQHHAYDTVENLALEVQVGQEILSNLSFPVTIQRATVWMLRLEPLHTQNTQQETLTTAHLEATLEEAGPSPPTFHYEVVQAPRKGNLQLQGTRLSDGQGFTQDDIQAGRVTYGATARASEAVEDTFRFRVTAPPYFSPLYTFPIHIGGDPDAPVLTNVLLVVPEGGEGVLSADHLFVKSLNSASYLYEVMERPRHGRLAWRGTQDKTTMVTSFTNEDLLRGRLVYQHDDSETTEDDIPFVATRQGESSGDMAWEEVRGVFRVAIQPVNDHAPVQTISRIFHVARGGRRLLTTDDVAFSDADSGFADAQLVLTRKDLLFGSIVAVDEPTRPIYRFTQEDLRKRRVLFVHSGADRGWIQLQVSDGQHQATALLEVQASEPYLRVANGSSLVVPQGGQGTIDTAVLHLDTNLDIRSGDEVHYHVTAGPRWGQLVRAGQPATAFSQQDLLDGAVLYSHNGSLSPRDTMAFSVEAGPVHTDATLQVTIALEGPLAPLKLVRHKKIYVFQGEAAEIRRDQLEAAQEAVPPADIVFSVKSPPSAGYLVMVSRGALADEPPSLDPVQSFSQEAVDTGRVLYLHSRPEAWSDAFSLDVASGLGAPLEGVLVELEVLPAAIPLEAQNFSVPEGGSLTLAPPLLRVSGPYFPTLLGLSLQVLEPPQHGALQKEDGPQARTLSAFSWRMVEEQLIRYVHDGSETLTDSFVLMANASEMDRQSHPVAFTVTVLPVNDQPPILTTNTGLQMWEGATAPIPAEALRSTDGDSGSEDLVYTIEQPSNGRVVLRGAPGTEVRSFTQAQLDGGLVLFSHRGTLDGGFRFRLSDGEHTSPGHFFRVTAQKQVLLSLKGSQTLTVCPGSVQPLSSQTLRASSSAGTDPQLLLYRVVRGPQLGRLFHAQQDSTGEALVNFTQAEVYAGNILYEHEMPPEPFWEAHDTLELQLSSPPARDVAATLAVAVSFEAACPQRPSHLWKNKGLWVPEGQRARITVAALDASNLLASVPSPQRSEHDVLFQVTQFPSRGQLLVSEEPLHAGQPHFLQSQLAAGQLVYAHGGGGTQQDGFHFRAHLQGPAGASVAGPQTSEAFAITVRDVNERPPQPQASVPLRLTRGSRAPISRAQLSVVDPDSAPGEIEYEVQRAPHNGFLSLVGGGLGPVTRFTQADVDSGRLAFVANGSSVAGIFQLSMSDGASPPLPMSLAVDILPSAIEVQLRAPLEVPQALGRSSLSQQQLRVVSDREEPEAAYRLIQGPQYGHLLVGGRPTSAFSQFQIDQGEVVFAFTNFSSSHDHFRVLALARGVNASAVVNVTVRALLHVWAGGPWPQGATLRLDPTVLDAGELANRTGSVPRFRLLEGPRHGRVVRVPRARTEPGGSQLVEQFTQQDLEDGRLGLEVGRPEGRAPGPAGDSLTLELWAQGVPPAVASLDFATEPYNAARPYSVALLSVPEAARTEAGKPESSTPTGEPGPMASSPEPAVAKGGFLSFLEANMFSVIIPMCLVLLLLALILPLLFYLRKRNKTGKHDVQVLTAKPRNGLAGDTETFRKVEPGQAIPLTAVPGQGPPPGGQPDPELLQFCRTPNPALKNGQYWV

B1: CROPs fragment of TcdB (TcdB1831-2366) as used in the cell-binding assays (other)
chain: MVSGLIYINDSLYYFKPPVNNLITGFVTVGDDKYYFNPINGGAASIGETIIDDKNYYFNQSGVLQTGVFSTEDGFKYFAPANTLDENLEGEAIDFTGKLIIDENIYYFDDNYRGAVEWKELDGEMHYFSPETGKAFKGLNQIGDYKYYFNSDGVMQKGFVSINDNKHYFDDSGVMKVGYTEIDGKHFYFAENGEMQIGVFNTEDGFKYFAHHNEDLGNEEGEEISYSGILNFNNKIYYFDDSFTAVVGWKDLEDGSKYYFDEDTAEAYIGLSLINDGQYYFNDDGIMQVGFVTINDKVFYFSDSGIIESGVQNIDDNYFYIDDNGIVQIGVFDTSDGYKYFAPANTVNDNIYGQAVEYSGLVRVGEDVYYFGETYTIETGWIYDMENESDKYYFNPETKKACKGINLIDDIKYYFDEKGIMRTGLISFENNNYYFNENGEMQFGYINIEDKMFYFGEDGVMQIGVFNTPDGFKYFAHQNTLDENFEGESINYTGWLDLDEKRYYFTDEYIAATGSVIIDGEEYYFDPDTAQLVISE
For the molecule B1, in assay [1], the binding result is “binds”.

B2: GST-tagged CROPs region of TcdB (residues 1831-2366) (other)
chain: B1 chain
For B2, the binding result in assay [2] is given as “no binding (tested: 10 nM FZD2-CRD-Fc)”.

(Values after patent US20190031734A1 (CHILDREN S MEDICAL CENTER, published 2019).)
